# According to US7329737 (DYAX, dated 2008):
# Biological target: T1, hK1 (human tissue kallikrein 1), recombinant (human, UniProt P06870 25-262)
# T1 construct: Expressed in P. pastoris from KLK1 cDNA and purified; enzymatically active; also called KLK1; Recombinant (Pichia) Kallikrein
# Assay: SPR
Binder,Kd,koff,kon
"M0135-E10 (Fab, V domains shown) VH: EVQLLESGGGLVQPGGSLRLSCAASGFTFSWYRMSWVRQAPGKGLEWVSSISPSGGPTKYADSVKGRFTISRDNSKNTLYLQMNSLRAEDTAVYYCARPSGDSSVYRPFASWGQGTLVTVSS VL: not shown",7.57 nM,0.00206 s⁻¹,272000 M⁻¹ s⁻¹
"M0135-C11 (Fab, V domains shown) VH: EVQLLESGGGLVQPGGSLRLSCAASGFTFSNYSMQWVRQAPGKGLEWVSGIRPSGGSTRYADSVKGRFTISRDNSKNTLYLQMNSLRAEDTAVYYCAVSTGGYYYGMDVWGQGTTVTVSS VL: DIQMTQSPSSVSASVGDRVTITCRASQGISSWLAWYQQKPGKAPKLLIYAASSLQSGVPSRFSGSGSGTDFTLTISSLQPEDFATYYCQQANSFPSLTFGGGTKVEIKR",6.85 nM,0.00231 s⁻¹,337000 M⁻¹ s⁻¹
"M0138-E12 (Fab, V domains shown) VH: EVQLLESGGGLVQPGGSLRLSCAASGFTFSWYVMRWVRQAPGKGLEWVSSIYPSGGQTRYADSVKGRFTISRDNSKNTLYLQMNSLRAEDTAMYYCATGYSSTWGAFDIWGQGTMVTVSS VL: AQSALTQPASVSGSPGQSITISCSGTSSDVGAYYHVSWYQQHPGKAPKLMIYEVTNRPSGISNRFSGSKSGNTASLTISGLQADDEADYFCSSYTTSNTLVFGGGTKVTVLG",10 nM,0.00149 s⁻¹,148000 M⁻¹ s⁻¹
"M0127-C06 (Fab, V domains shown) VH: EVQLLESGGGLVQPGGSLRLSCAASGFTFSNYPMHWVRQAPGKGLEWVSYIGPSGGWTRYADSVKGRFTISRDNSKNTLYLQMNSLRAEDTAVYYCARAPSGYWGQGTLVTVSS VL: not shown",8.69 nM,0.00575 s⁻¹,662000 M⁻¹ s⁻¹
"M0110-D11 (Fab, V domains shown) VH: EVQLLESGGGLVQPGGSLRLSCAASGFTFSHYLMYWVRQAPGKGLEWVSRIGPSGGWTKYADSVKGRFTISRDNSKNTLYLQMNSLRAEDTAVYYCARVGVWYGMDVWGQGTTVTVSS VL: AQSELTQPASVSGSPGQSITISCTGTSTDVGGYNYVSWYQKHPGKAPKLMIYDVSNRPSGVSNRFSGSKSGNTASLTISGLQAEDEADYYCSSYTNTITVVFGGGTKLTVLG",6.38 nM,0.00134 s⁻¹,210000 M⁻¹ s⁻¹
"M0109-A11 (Fab, V domains shown) VH: EVQLLESGGGLVQPGGSLRLSCAASGFTFSNYTMTWVRQAPGKGLEWVSVIYPSGGHTTYADSVKGRFTISRDNSKNTLYLQMNSLRAEDTAMYYCARGGRWFSLDYWGQGTLVTVSS VL: AQSELTQPASVSGSPGQSITISCTGTSSDVGGYNYLSWYQQHPGKAPKLMIYGVSNRPSGVSTRFSGSKSGNTASLTISGLQAEDEADYYCSSYTSTGTRVFGGGTRLTVLG",7.45 nM,0.0035 s⁻¹,470000 M⁻¹ s⁻¹
"M0095-A11 (Fab, V domains shown) VH: EVQLLESGGGLVQPGGSLRLSCAASGFTFSPYMMGWVRQAPGKGLEWVSSIRSSGGATAYADSVKGRFTISRDNSKNTLYLQMNSLRAEDTATYYCARVGVWYGMDVWGQGTTVTVSS VL: DIQMTQSPATLSLSPGERATLSCRASQSVSSYLAWYQQKPGQAPRLLIYDASNRATGIPARFSGSGSGTDFTLTISSLEPEDFAVYYCQQRSNWPPYTFGQGTKLEIKR",7.22 nM,0.00379 s⁻¹,525000 M⁻¹ s⁻¹
"M0109-E08 (Fab, V domains shown) VH: EVQLLESGGGLVQPGGSLRLSCAASGFTFSHYTMLWVRQAPGKGLEWVSSIYSSGGSTYYADSVKGRFTISRDNSKNTLYLQMNSLRAEDTAVYYCARVGVWYGMDVWGQGTTVTVSS VL: not shown",10.1 nM,0.00889 s⁻¹,880000 M⁻¹ s⁻¹
"M0130-B02 (Fab, V domains shown) VH: EVQLLESGGGLVQPGGSLRLSCAASGFTFSNYSMVWVRQAPGKGLEWVSRIYSSGGSTHYADSVKGRFTISRDNSKNTLYLQMNSLRAEDTAVYYCARVGVWYGMDVWGQGTTVTVSS VL: AQSALTQPASVSGSPGQSITISCTDTSGNVGSYNLVSWYQQHPDKAPKLMIFEVSRRPSGVSDRFSGSKSGNTASLTISGLQAEDEADYYCCSYAGSNTYVFGTGTKVTVLG",7.8 nM,0.00307 s⁻¹,394000 M⁻¹ s⁻¹
"M0097-D04 (Fab, V domains shown) VH: EVQLLESGGGLVQPGGSLRLSCAASGFTFSHYFMHWVRQAPGKGLEWVSYISSSGGLTGYADSVKGRFTISRDNSKNTLYLQMNSLRAEDTAVYYCARRGPVYYYDSSGSHSAFDIWGQGTMVTVS VL: AQSELTQPPSASGTPGQRVTISCSGSSSNIGSNYVYWYQQLPGMAPKLLIYRNNQRPSGVPDRFSGSKSGTSASLAISGLRSEDEADYYCAAWDDSMSGVVFGGGTKLTVLS",8.28 nM,0.00168 s⁻¹,203000 M⁻¹ s⁻¹
"M0104-B03 (Fab, V domains shown) VH: EVQLLESGGGLVQPGGSLRLSCAASGFTFSNYTMFWVRQAPGKGLEWVSSIYPSGGITRYADSVKGRFTISRDNSKNTLYLQMNSLRAEDTAVYYCARVSFWNAFDIWGQGTMVTVSS VL: not shown",10.1 nM,0.00711 s⁻¹,707000 M⁻¹ s⁻¹
"M0104-B12 (Fab, V domains shown) VH: EVQLLESGGGLVQPGGSLRLSCAASGFTFSIYAMIWVRQAPGKGLEWVSSIYSSGGPTQYADSVKGRFTISRDNSKNTLYLQMNSLRAEDTAVYYCARGRRTYYYDSSGYYKYAAFDIWGQGTMVTVSS VL: DIQMTQSPSSLSASVGDRVTITCRASQAISNYLAWYQQQPGKVPKLLISAASTLQSGVPSRFSGSGSGTDFTLSISSLQPEDVATYYCQTYYSVPFTFGPGTKVDFKR",7.41 nM,0.00171 s⁻¹,230000 M⁻¹ s⁻¹
"M0101-E01 (Fab, V domains shown) VH: EVQLLESGGGLVQPGGSLRLSCAASGFTFSPYIMSWVRQAPGKGLEWVSSIVSSGGVTLYADSVKGRFTISRDNSKNTLYLQMNSLRAEDTAVYYCTKNINLRYDILTGYFDIWGQGTTVTVSS VL: DIQMTQSPSSVSASVGDRVTITCRAGQNIYYWLAWYQQKPGKAPQLLIYAASSLQSGVPSRFSGSGSGTDFTLTISSLQPEDFATYYCQQAKSFPVTFGGGTKVEIKR",9.74 nM,0.000941 s⁻¹,96600 M⁻¹ s⁻¹

# Further binders by falling Kd, results first:
Kd,koff,kon,Binder
9.71 nM,0.0066 s⁻¹,680000 M⁻¹ s⁻¹,"M0107-F11 (Fab, V domains shown) VH: EVQLLESGGGLVQPGGSLRLSCAASGFTFSHYQMHWVRQAPGKGLEWVSSIRPSGGRTAYADSVKGRFTISRDNSKNTLYLQMNSLRAEDTAVYYCARVGVWYGMDVWGQGTTVTVSS VL: DIQMTQSPGTLSLSPGERATLSCRASQSVSGSYLAWYQQKPGQAPSLLIYGAYSRATGIPDRFSGSGSGTDFTLTISRLEPEDFAVYYCQHYGSSPRTFGGGTKVEIKR"
9.06 nM,0.00812 s⁻¹,896000 M⁻¹ s⁻¹,"M0107-D01 (Fab, V domains shown) VH: EVQLLESGGGLVQPGGSLRLSCAASGFTFSWYGMGWVRQAPGKGLEWVSVIRPSGGTTRYADSVKGRFTISRDNSKNTLYLQMNSLRAEDTAVYYCARGGRYYSLDYWGQGTLVTVSS VL: AQSELTQPASVSGPPGQSITISCTGTSSDVGGYNYVSWYQQHPGKAPKLIIYEVSNRPSGVSYRFSASKSDNTASLTISGVQAEDEADYYCSSYKRGGTYVFGTGTTVIVL"
8.81 nM,0.0036 s⁻¹,409000 M⁻¹ s⁻¹,"M0105-B06 (Fab, V domains shown) VH: EVQLLESGGGLVQPGGSLRLSCAASGFTFSHYAMGWVRQAPGKGLEWVSRIWPSGGHTQYADSVKGRFTISRDNSKNTLYLQMNSLRAEDTAMYYCATGYSSTWGAFDIWGQGTMVTVSS VL: DIQMTQSPSSLSASVGDRVTLTCRASQSIANYLNWYQQKPGKAPKLLVYAASRLHSGVPSRFSGRGSGTDFTLTITSLEPDDLATYYCQQSHASPLTFGGGTKVEIKR"
8.5 nM,0.00355 s⁻¹,418000 M⁻¹ s⁻¹,"M0108-E11 (Fab, V domains shown) VH: EVQLLESGGGLVQPGGSLRLSCAASGFTFSNYSMMWVRQAPGKGLEWVSSIYPSGGFTKYADSVKGRFTISRDNSKNTLYLQMNSLRAEDTAVYYCARVGFYGGFVWGQGTTVTVSS VL: AQYELTQPASVSGSPGQSITISCTATSSDLGSYNFVSWYQQHPDKAPKLMIFEVSRRPSGVSNRFSGSKSGNTASLTISGLQAEDEADYYCCSYAGSNTYVFGTGTKVTVLG"
8.4 nM,0.00313 s⁻¹,372000 M⁻¹ s⁻¹,"M0093-G06 (Fab, V domains shown) VH: EVQLLESGGGLVQPGGSLRLSCAASGFTFSNYHMDWVRQAPGKGLEWVSVIGPSGGFTRYADSVKGRFTISRDNSKNTLYLQMNSLRAEDTAVYYCARALGGSLDYWGQGTLVTVSS VL: AQSALTQPRSVSGSLGQSVTISCTGSTSDVGGYTYVSWYQQEPGKAPKLMIHDVSKRPSGVPDRFSGSKSGNTASLIISGLQAEDEADYYCCSYAGSYSYVFGTGTKVTVLG"
7.27 nM,0.00158 s⁻¹,218000 M⁻¹ s⁻¹,"M0092-F08 (Fab, V domains shown) VH: EVQLLESGGGLVQPGGSLRLSCAASGFTFSHYPMIWVRQAPGKGLEWVSGIYSSGGTTKYADSVKGRFTISRDNSKNTLYLQMNSLRAEDTAVYYCARVGVWYGMDVWGQGTTVTVSS VL: DIQMTQSPATLSLSPGERATLSCGASQSVSSSYLAWYQQKPGLAPRLLIYDASSRATGIPDRFSGSGSGTDFTLTISSLQPEDFATYYCLHDYNFPFTFGPGTKVDIKR"
6.8 nM,0.00101 s⁻¹,148000 M⁻¹ s⁻¹,"M0098-E01 (Fab, V domains shown) VH: EVQLLESGGGLVQPGGSLRLSCAASGFTFSMYGMTWVRQAPGKGLEWVSGISPSGGRTYYADSVKGRFTISRDNSKNTLYLQMNSLRAEDTAVYYCAKHRRDYVWWTYGMDVWGQGTTVTVSS VL: DIQMTQSPATLSLSPGERATLSCRASQSVSGFLAWYQQKPGQAPRLLIYDASNRATGIPARFSGSGSGTDFTLTITRLEPEDFAVYYCQQYGDSSPITFGPGTRLEIKR"
6.17 nM,0.00601 s⁻¹,975000 M⁻¹ s⁻¹,"M0110-H11 (Fab, V domains shown) VH: EVQLLESGGGLVQPGGSLRLSCAASGFTFSHYKMEWVRQAPGKGLEWVSRIRPSGGVTKYADSVKGRFTISRDNSKNTLYLQMNSLRAEDTAVYYCTRGGLWDAFDIWGQGTMVTVSS VL: DIQMTQSPSSLSASVGDRVTITCRASQSISSYLNWYQQKPGKAPKLLIYAASSLQSGVPSRFSGSGSGTDFTLTISSLHPEDFATYYCQQTYSTLFTFGPGTKVHIKR"
